Source: article PMC10637973 (The Journal of Biological Chemistry, 2023)
Numbering of substitutions follows the chain as printed. Names may count otherwise. One block for each binder: values may come before it.

What was measured:
mono-ubiquitin = biological target: T1, mono-ubiquitin (UniProt P0CG47 1-76); test: ITC; ubiquitin samples (200–500 μM) titrated into USP11 samples (20–30 μM); 50 mM Tris-Cl, pH 7.5, 150 mM NaCl, 1% (v/v) glycerol; 25 °C; one-site binding model; settings: both partners purified
T1 construct: ubiquitin (the reaction product, residues 1-76); also called product ubiquitin; source: E. coli BL21(DE3)-Codon Plus; purification of the ubiquitin constructs not described

linear diubiquitin = biological target: T2, linear diubiquitin (UniProt P0CG47 1-76; P0CG47 1-76); test: as above; settings: both partners purified
T2 construct: ubiquitin, distal moiety (residues 1-76); ubiquitin, proximal moiety, its Met1 (Met77 of the chain) joined by a peptide bond to Gly76 of the distal moiety; source: E. coli BL21(DE3)-Codon Plus; purification of the ubiquitin constructs not described

Kd (mono-ubiquitin): ~3500 nM
B1: USP11-D1D2 (enzyme, human)
chain: MSEEDEDFKGQPGICGLTNLGNTCFMNSALQCLSNVPQLTEYFLNNCYLEELNFRNPLGMKGEIAEAYADLVKQAWSGHHRSIVPHVFKNKVGHFASQFLGYQQHDSQELLSFLLDGLHEDLNRVKKKEYVELCDAAGRPDQEVAQEAWQNHKRRNDSVIVDTFHGLFKSTLVCPDCGNVSVTFDPFCYLSVPLPASTSKPVRLQECIELFTTVETLEKENPWYCPSCKQHQLATKKLDLWMLPEILIIHLKRFSYTKFSREKLDTLVEFPIRDLDFSEFVIQPQNESNPELYKYDLIAVSNHYGGMRDGHYTTFACNKDSGQWHYFDDNSVSPVNENQIESKAAYVLFYQRQDVARRLL
notes: USP11, human, catalytic subdomain D1, residues Met295-Pro489; numbering of UniProt P51784; linker that replaces the insertion between subdomains D1 and D2; USP11, human, catalytic subdomain D2, residues Pro778-Leu937; also called USP11 catalytic core; USP11 catalytic domain; source: E. coli BL21(DE3)-Codon Plus, purified (Ni2+ HiTrap chelating column, SEC Superdex 200); not shown: His tag (from …)

binding result (linear diubiquitin): binds
B2: USP11-D1D2 C318S/D886G (enzyme, human)
chain: B1 chain with C24S, D309G
notes: USP11, human, catalytic subdomain D1, residues Met295-Pro489; numbering of UniProt P51784; linker that replaces the insertion between subdomains D1 and D2; USP11, human, catalytic subdomain D2, residues Pro778-Leu937; Made from the USP11-D1D2 C318S template; source: E. coli BL21(DE3)-Codon Plus, purified (Ni2+ HiTrap chelating column, SEC Superdex 200); not shown: His tag (from the Ni2+ chelating …)

Kd (mono-ubiquitin): ~2000 nM
B3: USP11-D1D2 H399Q (enzyme, human)
chain: B1 chain with H105Q
notes: USP11, human, catalytic subdomain D1, residues Met295-Pro489; numbering of UniProt P51784; linker that replaces the insertion between subdomains D1 and D2; USP11, human, catalytic subdomain D2, residues Pro778-Leu937; source: E. coli BL21(DE3)-Codon Plus, purified (Ni2+ HiTrap chelating column, SEC Superdex 200); not shown: His tag (from the Ni2+ chelating column)

Kd (mono-ubiquitin): 1100 nM
B4: USP11-D1D2 R885G (enzyme, human)
chain: B1 chain with R308G
notes: as for B3
